Reference: publication PMC2172933

Molecular target: neural cell adhesion molecule 140 (NCAM140), rat, expressed in CHO cells (rat) (UniProt P13596)
Assay: co-IP

Sequence of UniProt P13596 (P13596 20-858): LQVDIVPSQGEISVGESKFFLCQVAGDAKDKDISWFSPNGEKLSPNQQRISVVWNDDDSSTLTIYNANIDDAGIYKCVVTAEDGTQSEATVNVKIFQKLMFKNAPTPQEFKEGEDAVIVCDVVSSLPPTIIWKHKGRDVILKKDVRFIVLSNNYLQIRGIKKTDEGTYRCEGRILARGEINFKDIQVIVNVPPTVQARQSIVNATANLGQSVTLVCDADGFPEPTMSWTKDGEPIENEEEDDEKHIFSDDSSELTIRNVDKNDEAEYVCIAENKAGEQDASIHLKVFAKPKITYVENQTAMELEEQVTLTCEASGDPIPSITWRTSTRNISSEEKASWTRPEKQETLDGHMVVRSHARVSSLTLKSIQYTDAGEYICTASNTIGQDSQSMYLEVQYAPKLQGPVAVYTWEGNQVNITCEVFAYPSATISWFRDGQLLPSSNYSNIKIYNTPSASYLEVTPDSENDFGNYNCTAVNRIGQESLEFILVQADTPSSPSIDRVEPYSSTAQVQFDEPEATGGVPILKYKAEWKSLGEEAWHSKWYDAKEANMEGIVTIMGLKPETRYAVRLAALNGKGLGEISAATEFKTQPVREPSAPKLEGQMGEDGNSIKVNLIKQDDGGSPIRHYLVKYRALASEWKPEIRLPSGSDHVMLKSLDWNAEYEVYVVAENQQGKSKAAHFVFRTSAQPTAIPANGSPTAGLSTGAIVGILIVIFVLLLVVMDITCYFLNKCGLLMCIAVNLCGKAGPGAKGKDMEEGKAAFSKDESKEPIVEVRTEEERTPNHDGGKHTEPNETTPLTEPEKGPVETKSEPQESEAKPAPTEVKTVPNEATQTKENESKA

percent of the amount of spectrin that coprecipitated with NCAM180 (set to 100%): 69.8%
Substance: βI spectrin, endogenous in CHO cells, A0A9J7GYU9 1-2329
